Results taken from patent US20230357348A1 (AstraZeneca / MedImmune, published 2023).
Starred links: 1 amine or outer side, 2 acyl side, 3 side chain; linkers in the order of their positions; H or OH if unused. Non-standard residues stand in square brackets, D forms with d. Groups on a side chain read outwards from the residue. No end group written: not given here. *: point of attachment. C20 diacid = O=C(O)CCCCCCCCCCCCCCCCCCC(=O)*; γGlu = O=C(O)[C@H](CCC(=O)[*:2])N[*:1]; αMeF = C[C@](N)(Cc1ccccc1)C(=O)O; AEEA = NCCOCCOCC(=O)O; Aib = CC(C)(N)C(=O)O

B1: Peptide 505 (peptide)
peptide: H[Aib]QGTFTSDVSK[αMeF]LDTK([AEEA-AEEA-γGlu-C20 diacid])RAQDFVQWLLE[Aib]K-NH2
modifications: N-terminus assumed
SMILES: CC(C)C[C@H](NC(=O)[C@H](Cc1c[nH]c2ccccc12)NC(=O)[C@H](CCC(N)=O)NC(=O)[C@@H](NC(=O)[C@H](Cc1ccccc1)NC(=O)[C@H](CC(=O)O)NC(=O)[C@H](CCC(N)=O)NC(=O)[C@H](C)NC(=O)[C@H](CCCNC(=N)N)NC(=O)[C@H](CCCCNC(=O)COCCOCCNC(=O)COCCOCCNC(=O)CC[C@H](NC(=O)CCCCCCCCCCCCCCCCCCC(=O)O)C(=O)O)NC(=O)[C@@H](NC(=O)[C@H](CC(=O)O)NC(=O)[C@H](CC(C)C)NC(=O)[C@](C)(Cc1ccccc1)NC(=O)[C@H](CCCCN)NC(=O)[C@H](CO)NC(=O)[C@@H](NC(=O)[C@H](CC(=O)O)NC(=O)[C@H](CO)NC(=O)[C@@H](NC(=O)[C@H](Cc1ccccc1)NC(=O)[C@@H](NC(=O)CNC(=O)[C@H](CCC(N)=O)NC(=O)C(C)(C)NC(=O)[C@@H](N)Cc1c[nH]cn1)[C@@H](C)O)[C@@H](C)O)C(C)C)[C@@H](C)O)C(C)C)C(=O)N[C@@H](CC(C)C)C(=O)N[C@@H](CCC(=O)O)C(=O)NC(C)(C)C(=O)N[C@@H](CCCCN)C(N)=O
B2: Peptide 510 (peptide)
peptide: H[Aib]QGTFTSDVSK[αMeF]LDTK([AEEA-AEEA-γGlu-C20 diacid])RARDFVRWLL[Aib]E-OH
modifications: N-terminus assumed
SMILES: CC(C)C[C@H](NC(=O)[C@H](Cc1c[nH]c2ccccc12)NC(=O)[C@H](CCCNC(=N)N)NC(=O)[C@@H](NC(=O)[C@H](Cc1ccccc1)NC(=O)[C@H](CC(=O)O)NC(=O)[C@H](CCCNC(=N)N)NC(=O)[C@H](C)NC(=O)[C@H](CCCNC(=N)N)NC(=O)[C@H](CCCCNC(=O)COCCOCCNC(=O)COCCOCCNC(=O)CC[C@H](NC(=O)CCCCCCCCCCCCCCCCCCC(=O)O)C(=O)O)NC(=O)[C@@H](NC(=O)[C@H](CC(=O)O)NC(=O)[C@H](CC(C)C)NC(=O)[C@](C)(Cc1ccccc1)NC(=O)[C@H](CCCCN)NC(=O)[C@H](CO)NC(=O)[C@@H](NC(=O)[C@H](CC(=O)O)NC(=O)[C@H](CO)NC(=O)[C@@H](NC(=O)[C@H](Cc1ccccc1)NC(=O)[C@@H](NC(=O)CNC(=O)[C@H](CCC(N)=O)NC(=O)C(C)(C)NC(=O)[C@@H](N)Cc1c[nH]cn1)[C@@H](C)O)[C@@H](C)O)C(C)C)[C@@H](C)O)C(C)C)C(=O)N[C@@H](CC(C)C)C(=O)NC(C)(C)C(=O)N[C@@H](CCC(=O)O)C(=O)O
B3: Peptide 508 (peptide)
peptide: H[Aib]QGTFTSDVSK[αMeF]LESK([AEEA-AEEA-γGlu-C20 diacid])RAQDFVRWLVE[Aib]G-NH2
modifications: N-terminus assumed
SMILES: CC(C)C[C@H](NC(=O)[C@H](Cc1c[nH]c2ccccc12)NC(=O)[C@H](CCCNC(=N)N)NC(=O)[C@@H](NC(=O)[C@H](Cc1ccccc1)NC(=O)[C@H](CC(=O)O)NC(=O)[C@H](CCC(N)=O)NC(=O)[C@H](C)NC(=O)[C@H](CCCNC(=N)N)NC(=O)[C@H](CCCCNC(=O)COCCOCCNC(=O)COCCOCCNC(=O)CC[C@H](NC(=O)CCCCCCCCCCCCCCCCCCC(=O)O)C(=O)O)NC(=O)[C@H](CO)NC(=O)[C@H](CCC(=O)O)NC(=O)[C@H](CC(C)C)NC(=O)[C@](C)(Cc1ccccc1)NC(=O)[C@H](CCCCN)NC(=O)[C@H](CO)NC(=O)[C@@H](NC(=O)[C@H](CC(=O)O)NC(=O)[C@H](CO)NC(=O)[C@@H](NC(=O)[C@H](Cc1ccccc1)NC(=O)[C@@H](NC(=O)CNC(=O)[C@H](CCC(N)=O)NC(=O)C(C)(C)NC(=O)[C@@H](N)Cc1c[nH]cn1)[C@@H](C)O)[C@@H](C)O)C(C)C)C(C)C)C(=O)N[C@H](C(=O)N[C@@H](CCC(=O)O)C(=O)NC(C)(C)C(=O)NCC(N)=O)C(C)C
B4: Peptide 504 (peptide)
peptide: H[Aib]QGTFTSDVSK[αMeF]LESK([AEEA-AEEA-γGlu-C20 diacid])RAQDFVRWLLE[Aib]K-OH
modifications: N-terminus assumed
SMILES: CC(C)C[C@H](NC(=O)[C@H](Cc1c[nH]c2ccccc12)NC(=O)[C@H](CCCNC(=N)N)NC(=O)[C@@H](NC(=O)[C@H](Cc1ccccc1)NC(=O)[C@H](CC(=O)O)NC(=O)[C@H](CCC(N)=O)NC(=O)[C@H](C)NC(=O)[C@H](CCCNC(=N)N)NC(=O)[C@H](CCCCNC(=O)COCCOCCNC(=O)COCCOCCNC(=O)CC[C@H](NC(=O)CCCCCCCCCCCCCCCCCCC(=O)O)C(=O)O)NC(=O)[C@H](CO)NC(=O)[C@H](CCC(=O)O)NC(=O)[C@H](CC(C)C)NC(=O)[C@](C)(Cc1ccccc1)NC(=O)[C@H](CCCCN)NC(=O)[C@H](CO)NC(=O)[C@@H](NC(=O)[C@H](CC(=O)O)NC(=O)[C@H](CO)NC(=O)[C@@H](NC(=O)[C@H](Cc1ccccc1)NC(=O)[C@@H](NC(=O)CNC(=O)[C@H](CCC(N)=O)NC(=O)C(C)(C)NC(=O)[C@@H](N)Cc1c[nH]cn1)[C@@H](C)O)[C@@H](C)O)C(C)C)C(C)C)C(=O)N[C@@H](CC(C)C)C(=O)N[C@@H](CCC(=O)O)C(=O)NC(C)(C)C(=O)N[C@@H](CCCCN)C(=O)O
B5: Peptide 506 (peptide)
peptide: H[Aib]QGTFTSDVSK[αMeF]LDTK([AEEA-AEEA-γGlu-C20 diacid])RARDFVAWLLE[Aib]G-OH
modifications: N-terminus assumed
SMILES: CC(C)C[C@H](NC(=O)[C@H](Cc1c[nH]c2ccccc12)NC(=O)[C@H](C)NC(=O)[C@@H](NC(=O)[C@H](Cc1ccccc1)NC(=O)[C@H](CC(=O)O)NC(=O)[C@H](CCCNC(=N)N)NC(=O)[C@H](C)NC(=O)[C@H](CCCNC(=N)N)NC(=O)[C@H](CCCCNC(=O)COCCOCCNC(=O)COCCOCCNC(=O)CC[C@H](NC(=O)CCCCCCCCCCCCCCCCCCC(=O)O)C(=O)O)NC(=O)[C@@H](NC(=O)[C@H](CC(=O)O)NC(=O)[C@H](CC(C)C)NC(=O)[C@](C)(Cc1ccccc1)NC(=O)[C@H](CCCCN)NC(=O)[C@H](CO)NC(=O)[C@@H](NC(=O)[C@H](CC(=O)O)NC(=O)[C@H](CO)NC(=O)[C@@H](NC(=O)[C@H](Cc1ccccc1)NC(=O)[C@@H](NC(=O)CNC(=O)[C@H](CCC(N)=O)NC(=O)C(C)(C)NC(=O)[C@@H](N)Cc1c[nH]cn1)[C@@H](C)O)[C@@H](C)O)C(C)C)[C@@H](C)O)C(C)C)C(=O)N[C@@H](CC(C)C)C(=O)N[C@@H](CCC(=O)O)C(=O)NC(C)(C)C(=O)NCC(=O)O
B6: Peptide 511 (peptide)
peptide: H[Aib]QGTFTSDVSK[αMeF]LDTK([AEEA-AEEA-γGlu-C20 diacid])RARDFVRWLL[Aib]E-NH2
modifications: N-terminus assumed
SMILES: CC(C)C[C@H](NC(=O)[C@H](Cc1c[nH]c2ccccc12)NC(=O)[C@H](CCCNC(=N)N)NC(=O)[C@@H](NC(=O)[C@H](Cc1ccccc1)NC(=O)[C@H](CC(=O)O)NC(=O)[C@H](CCCNC(=N)N)NC(=O)[C@H](C)NC(=O)[C@H](CCCNC(=N)N)NC(=O)[C@H](CCCCNC(=O)COCCOCCNC(=O)COCCOCCNC(=O)CC[C@H](NC(=O)CCCCCCCCCCCCCCCCCCC(=O)O)C(=O)O)NC(=O)[C@@H](NC(=O)[C@H](CC(=O)O)NC(=O)[C@H](CC(C)C)NC(=O)[C@](C)(Cc1ccccc1)NC(=O)[C@H](CCCCN)NC(=O)[C@H](CO)NC(=O)[C@@H](NC(=O)[C@H](CC(=O)O)NC(=O)[C@H](CO)NC(=O)[C@@H](NC(=O)[C@H](Cc1ccccc1)NC(=O)[C@@H](NC(=O)CNC(=O)[C@H](CCC(N)=O)NC(=O)C(C)(C)NC(=O)[C@@H](N)Cc1c[nH]cn1)[C@@H](C)O)[C@@H](C)O)C(C)C)[C@@H](C)O)C(C)C)C(=O)N[C@@H](CC(C)C)C(=O)NC(C)(C)C(=O)N[C@@H](CCC(=O)O)C(N)=O
B7: Peptide 502 (peptide)
peptide: H[Aib]QGTFTSDVSK[αMeF]LDTK([AEEA-AEEA-γGlu-C20 diacid])RARDFVQWLLR[Aib]A-OH
modifications: N-terminus assumed
SMILES: CC(C)C[C@H](NC(=O)[C@H](Cc1c[nH]c2ccccc12)NC(=O)[C@H](CCC(N)=O)NC(=O)[C@@H](NC(=O)[C@H](Cc1ccccc1)NC(=O)[C@H](CC(=O)O)NC(=O)[C@H](CCCNC(=N)N)NC(=O)[C@H](C)NC(=O)[C@H](CCCNC(=N)N)NC(=O)[C@H](CCCCNC(=O)COCCOCCNC(=O)COCCOCCNC(=O)CC[C@H](NC(=O)CCCCCCCCCCCCCCCCCCC(=O)O)C(=O)O)NC(=O)[C@@H](NC(=O)[C@H](CC(=O)O)NC(=O)[C@H](CC(C)C)NC(=O)[C@](C)(Cc1ccccc1)NC(=O)[C@H](CCCCN)NC(=O)[C@H](CO)NC(=O)[C@@H](NC(=O)[C@H](CC(=O)O)NC(=O)[C@H](CO)NC(=O)[C@@H](NC(=O)[C@H](Cc1ccccc1)NC(=O)[C@@H](NC(=O)CNC(=O)[C@H](CCC(N)=O)NC(=O)C(C)(C)NC(=O)[C@@H](N)Cc1c[nH]cn1)[C@@H](C)O)[C@@H](C)O)C(C)C)[C@@H](C)O)C(C)C)C(=O)N[C@@H](CC(C)C)C(=O)N[C@@H](CCCNC(=N)N)C(=O)NC(C)(C)C(=O)N[C@@H](C)C(=O)O

Legend:
[1] = biological target: human GLP-1 receptor (hGLP-1R) (human, UniProt P43220 24-463); assay: cell-based or functional assay
[2] = biological target: human glucagon receptor (hGCGR) (human, UniProt P47871 26-477); assay: cell-based or functional assay
human glucagon receptor (hGCGR), sequence (P47871 26-477): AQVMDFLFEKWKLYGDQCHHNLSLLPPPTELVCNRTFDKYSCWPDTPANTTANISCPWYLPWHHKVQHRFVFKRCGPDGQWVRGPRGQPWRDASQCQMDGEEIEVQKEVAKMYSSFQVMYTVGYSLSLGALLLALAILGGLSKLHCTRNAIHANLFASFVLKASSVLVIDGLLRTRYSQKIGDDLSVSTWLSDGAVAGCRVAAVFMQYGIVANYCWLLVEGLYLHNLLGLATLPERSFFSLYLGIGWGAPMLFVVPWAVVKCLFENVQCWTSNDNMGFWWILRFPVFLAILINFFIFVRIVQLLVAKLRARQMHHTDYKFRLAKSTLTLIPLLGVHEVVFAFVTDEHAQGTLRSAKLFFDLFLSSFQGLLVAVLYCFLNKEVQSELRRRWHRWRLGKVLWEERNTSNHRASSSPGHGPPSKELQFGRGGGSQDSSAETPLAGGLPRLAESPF

Binder | hGLP-1R EC50 (pM) [1] [pM] | hGluc-R EC50 (pM) [2] [pM]
B1 | 42.1 | 191
B2 | 176 | 118
B3 | 67.9 | 2800
B4 | 124 | 551
H[Aib]QGTFTSDVSK[αMeF]LDTK([AEEA-AEEA-γGlu-C20 diacid])RARDFVAWLLE[Aib]G-NH2 [Peptide 507] | 52.9 | 86.6
B5 | 162 | 149
B6 | 118 | 140
H[Aib]QGTFTSDVSK[αMeF]LDTK([AEEA-AEEA-γGlu-C20 diacid])RAQDFVRWLLE[Aib]K-OH [Peptide 503] | 81.2 | 84.9
B7 | 82.1 | 175
